We go through 16 sequences from the DeepSol protein solubility set.

This series can be described thus: soluble on expression in E. coli; label from the status in PepcDB or PDB records.
Consider “MRIKKKNTRGNARNFITRSQAVRKLQVSLADFRRLCIFKGIYPREPRNKKKANKGSTAPTTFYYAKDIQYLMHEPVLAKFREHKTFARKLTRALGRGEVSSAKRLEENRDSYTLDHIIKERYPSFPDAIRDIDDALNMLFLFSNLPSTNQVSSKIINDAQKICNQWLAYVAKERLVRKVFVSIKGVYYQANIKGEEVRWLVPFKFPENIPSDVDFRIMLTFLEFYSTLLHFVLYKLYTDSGLIYPPKLDLKKDKIISGLSSYILESRQEDSLLKLDPTEIEEDVKVESLDASTLKSALNADEANTDETEKEEEQEKKQEKEQEKEQNEETELDTFEDNNKNKGDILIQPSKYDSPVASLFSAFVFYVSREVPIDILEFLILSCGGNVISEAAMDQIENKKDIDMSKVTHQIVDRPVLKNKVAGRTYIQPQWIFDCINKGELVPANKYLPGEALPPHLSPWGDAIGYDPTAPVEEGEEEESESESESEDQVEEEDQEVVAGEEDDDDDEELQAQKELELEAQGIKYSETSEADKDVNKSKNKKRKVDEEEEEKKLKMIMMSNKQKKLYKKMKYSNAKKEEQAENLKKKKKQIAKQKAKLNKLDSKK”, for which the “soluble on expression in E. coli” value was “soluble”.
In the case of “MGSSHHHHHHSSGLVPRGSHMKWDYDLRCGEYTLNLNEKTLIMGILNVTPDSFSDGGSYNEVDAAVRHAKEMRDEGAHIIDIGGESTRPGFAKVSVEEEIKRVVPMIQAVSKEVKLPISIDTYKAEVAKQAIEAGAHIINDIWGAKAEPKIAEVAAHYDVPIILMHNRDNMNYRNLMADMIADLYDSIKIAKDAGVRDENIILDPGIGFAKTPEQNLEAMRNLEQLNVLGYPVLLGTSRKSFIGHVLDLPVEERLEGTGATVCLGIEKGCEFVRVHDVKEMSRMAKMMDAMIGKGVK”, the “soluble on expression in E. coli” value is on record as “soluble”.
Turning to “MKKHGVLNSEIAAVLASLGHTDTVVIADCGLPIPDGVKRIDLAVEIGKPSFLEVLQVVADDMAIEKVTLAEEVIINNAEVNKEIERKLIEPAFEYVSHEQFKEHTKKAKAIIRTGEATPYANVILHAGVIF”, the “soluble on expression in E. coli” value was “not soluble”.
Take “MGEIQVVAFRLGDEEFCLEISKVREIKEMMPITRVPNAPDFVEGVINLRGQITTVINLKKLLGYYDDGDLSNKKIIIAEVNGEIVGVIVDSVSDVITLTEDQIEQPPKTLASRVDMKAIKGIAKINNGERLLIMLDLDKLIGESF”: the “soluble on expression in E. coli” value is “soluble”.
For “MDEEERTSSRGWMREFKYPSNLRDITEEARISLSSVAHFDELLHESSELAWRTNMSPPHRALFTFSKKTDISYVMLFLDYSRDESYCPQEVRIDLGDGTNDWWLKMYRRVDQPKGWVKIPIHDAFGNPLRVMSLQMTIMKNHEKGRDCVVRHFRVLGPFRSRYDSMNRMILGPSAVLEARPGTEPIKDAIMNHYQSMR”, the “soluble on expression in E. coli” value is recorded as “not soluble”.
Then “MGSDKIHHHHHHMQMKQVLLEARQDFLSLLKRRGWKEKDLNILRGIFLGELSRVDVPADIFELAIKEAVKGNLKLSSKLLGVSEIDTLEILFWYLPKKYPLPSERLKKRLKAESVKEFIEEANRLRVKLGKKDFMELYLHLEEAEEEEEKRENTDLLERVRNLSIEKLSESEIEELRYFYSLLDLRGKESVRTLNVHPYILSAIIRNPSAPIVIDGSNLLWRGGLSVSYIYEVFERLAVFREFFFPYRIVFDRNAEFVLPVHERKGFERWKNSPNVLFESPADGLIISLANTMDAVVLSGDRFRDHGLPRRVRVLTPEEIEKG”, with “not soluble”; and “MEISTLLALSPLDGRYQQKVAALRPFFSEYALIRNRIHVEIEWFKALGNTPALTGASSLSTGAVVQLDQLVENFSVTDAEAVKSIETRTNHDVKAVEYWLKEKLTGDQETAAISE”, with “not soluble”; and “MDFLERLKSLWPDNAKPADFYNKIDMSASGFSRVWKDGAIPTADYLIKIQEVTGCDLNWLLTGQGSPYMNKGQAVEVRTHTDGTATDTLGNP”, with “not soluble”.
With “MGSDKIHHHHHHMIEKVEEKSKIIKTSKEYKRTIIEEKDKEWTKKLNDILSRSSFSNDELDKIKALIPKEILTNENVGEVVTEDGYAKPEYDEVFKSLFTLNNEYDLLVNFINDILKDAPYANRNIKPFTQIKRIIRVETDPTINYIGEKRPRLDILAEDEENNHINIEMQRAFENDYLERAEYYLSRVHGRKLEEGKEYKEIGKTIGIHILNHVKYNHIEDYVNCLRLTMDGHPDIYSSKTALYFIELPKIHKSDYIVNRIMLWGKLISNPSNLDVRVIAKNDSIIKKALDRLKELGSNEEYLLNLKRGAYIMNKSRNFKEEIERETAIRVAKEKDYKIIIMLKKNGFKLDDILNKFNDFDLSEDEIKEVYENN”, the “soluble on expression in E. coli” value was “not soluble”.
As for “MQINGKAPRNKDLEPHSFELWLNAAKTNLDKYEMALIITATLGLRRGEVMGLRNESIKISHDQINDADVAQISIDMQRNTNELNGGPLKTKSSYRTIWAFGKTVDHLKYAMITADNLRQRNNIQAEKHWLWLNNDGNPLHPTHLNRLMRRVSNRSGVEVYPHLLRHYFATQAIAANKPQIDVMHYLGHKNLQMTADYTRSTKAASLNVFNSIDKFLLEHHHHHH”, the “soluble on expression in E. coli” value is on record as “soluble”.
With “MIITGSFGNGHLQVTQSVVNQFKEMNLDNLTVIEHDLFLEAHPILTSICKKWYINSFKYFRNMYKAFYYSQPDQLDKCFYKYYGLNKLMNLLLKEKPDLILLTFPTPVMSVLTEQFDMNIPIATVMTDYRMQKNWITPFSQRYYLATEELKDEFASIGIPKDKLKVTGIPISDKFELEHHHHHH” the entry was “soluble”.
As to “MSLAKQDELVFLPLGGVGEIGMNLALYGYGPPEHRQWIMVDCGVTFPGPDLPGVDLVLPDIRFLASERKNLKAIIITHAHEDHYGALADLWPGLNVPVYASGFTAGLLEAKRNFEKAKIGEVPVTPFKAGDTINVGPFSIEGVAVNHSIPEPMSLMIRTPVGNVIHTGDWKIDHEPSLGPLTDETRFRQLGDEGVLALMCDSTNALRDGVSPSEKDVSESLRKIIENAEGRVAITTFSSNVGRIRTVAEAAEAAGREVLLLGSSLKRVVDVAQDVGLMEGVKPFISEEEYGYIPRDKVVVILTGSQGEARAALAKLSRDEMRNVAFAAGDIVVFSSRAIPGNEKAIQDIKNGLVEQGVHIITDTEALVHVSGHPRRNELQRMYEWTRPKIVVPVHGEATHLTAHKELAEQSGIALVPRVRNGDILRLAPGEGHHHHHH”, the “soluble on expression in E. coli” value is on record as “soluble”.
With “MGSDKIHHHHHHMESTRRIYASPSYEVYGLSRNPFIELASEGIEDIESIHVYQEVDMRISSLISDVIGNRSSITLSIVGPLGMGKTQRLKSIARVIEDRGGKVIYIKVDTTDVLKITRDIFASLRPPKNRTNVFLENLSRKLGFITRLEKMLSSTDEYKSRDIAEMLTRELSKYQYSALLLDELENMRGATEKEKILFFEMLRHFISNMPPGCVFAFASIPEAYEEYSSQFPAFFMRLHYEFKLRPMSYQEIIELVKKRLAKVRIRDTADPLYPFTEDAIKLIHELGKGNPRQILRLLNYVLSEAVKHKFDPINEYVVTTILEEPKSLEEYIARIPSDFKDLVKVIVEKFEGGPVSYIQIAKELKIPGMEAYEKLEHLVSLGFLVGDPRGNYKVPDYVRKFLEEKGE”, the “soluble on expression in E. coli” value was “not soluble”.
Consider “GSHMVEMRMKKCPKCGLYTLKEICPKCGEKTVIPKPPKFSLEDRWGKYRRMLKRALKNKNKAE”, for which the “soluble on expression in E. coli” value was “soluble”.
Regarding “MPLVSMKEMLNKALEGKYAVGQFNMNNLEWTQAILAAAEEEKSPVILGVSEGAARHMTGFKTVVAMVKALIEEMNITVPVAIHLDHGSSFEKCKEAIDAGFTSVMIDASHHPFEENVETTKKVVEYAHARNVSVEAELGTVGGQEDDVIAEGVIYADPAECKHLVEATGIDCLAPALGSVHGPYKGEPNLGFAEMEQVRDFTGVPLVLHGGTGIPTADIEKAISLGTSKINVNTENQIEFTKAVREVLNKDQEVYDPRKFIGPGRDAIKATVIGKIREFGSNGKA”, the “soluble on expression in E. coli” value is recorded as “not soluble”.
In the case of “MGSDKIHHHHHHMMNVLRDGCSERGTARVGKHHDLKTVRWYVLTLPTTGVARRDKISPAKSLDAELSRRKRRGETLFEYFAPSYVEVRKVDGKMVNTKRPLLFNYVFIRSSVEEIFQMKRTLPLYNFLPRVSSGGMTHFPYLSDSEMGNLRWVAESYSNELPVYVPDSNRLLKGDRVRITSGYFTGMEAEVVIQPGGGHKDVMARILDCMWVPLLEVKPGEYELIELNTKGKHAYTHLDNDRLREGLHDALGRYHTSGSVAEEDTRLACEVLRSYGSLRAETDVMRCKIYSLLLSAYKLLGDEEEFTRLHDTMRGMLPVVKAPQSRALLLVTLYGCTDSALYRQMAHEVVDPWRGESSPKKSKLSLIRRLDDCDRWLRHNE”, the “soluble on expression in E. coli” value was “not soluble”.
